Results published in paper PMC3672174.
“And” between values parts separate entries of the source, which are not always exact repeats. Identical values can stand only once.

How the values were obtained:
[1] = molecular target: human serum amyloid A 1.1 with the N-terminal methionine (MetSAA1.1) (human) (UniProt P0DJI8); test: SEC; as a1, protein refolded at 75 µM; self-association
[2] = molecular target: human serum amyloid A 1.1 with the N-terminal methionine (MetSAA1.1) (human) (UniProt P0DJI8); test: SEC; as a1, protein refolded at 8.5 µM; self-association
[3] = molecular target: human serum amyloid A 1.1 with the N-terminal methionine (MetSAA1.1) (human) (UniProt P0DJI8); test: SEC; Superdex 200 10/300 GL, 4°C, protein refolded at 20 µM, ~30 µL loaded, column in TBS (20 mM Tris/200 mM NaCl, pH 8.3), 0.5 mL/min; sizes from MW standards, globular shape assumed; self-association
[4] = molecular target: human serum amyloid A 1.1 with the N-terminal methionine (MetSAA1.1) (human) (UniProt P0DJI8); test: SEC; "cross-purified" proteins (MetSAA1.1 also passed through Histrap Ni-NTA; hSAA1.1 also purified by cation and anion exchange), compared with "regular" proteins, refolded at 20 µM, 4°C; self-association
[5] = molecular target: human serum amyloid A 1.1 (hSAA1.1), without the N-terminal methionine (human) (UniProt P0DJI8); test: SEC; as a1, protein refolded at 75 µM; self-association
[6] = molecular target: human serum amyloid A 1.1 (hSAA1.1), without the N-terminal methionine (human) (UniProt P0DJI8); test: SEC; as a1, protein refolded at 8.5 µM; self-association
[7] = molecular target: human serum amyloid A 1.1 (hSAA1.1), without the N-terminal methionine (human) (UniProt P0DJI8); test: SEC; Superdex 200 10/300 GL, 4°C, protein refolded at 20 µM, ~30 µL loaded, column in TBS (20 mM Tris/200 mM NaCl, pH 8.3), 0.5 mL/min; sizes from MW standards, globular shape assumed; self-association

stoichiometry N [1] | stoichiometry N [2] | stoichiometry N [3] | stoichiometry N [4] | stoichiometry N [5] | stoichiometry N [6] | stoichiometry N [7] | Substance
4 and 8 | 8 and 4 | 4 and 8 | 4 |  |  |  | human serum amyloid A 1.1 with the N-terminal methionine (MetSAA1.1) (from UniProt P0DJI8 19-122) (natural protein)
 |  |  |  | 8 and 6 | 4 and 8 | 8 and 6 | human serum amyloid A 1.1 (hSAA1.1), without the N-terminal methionine (from UniProt P0DJI8 19-122) (natural protein)
